# From patent US20230407373A1 (priority 2020, published 2023)
# Where two headings read alike, the source gives them in different places.
# B1: MAP4 (protein, UniProt P27816 2-1152, looked up)
# Microtubule-associated …: ADLSLADALTEPSPDIEGEIKRDFIATLEAEAFDDVVGETVGKTDYIPLLDVDEKTGNSESKKKPCSETSQIEDTPSSKPTLLANGGHGVEGSDTTGSPTEFLEEKMAYQEYPNSQNWPEDTNFCFQPEQVVDPIQTDPFKMYHDDDLADLVFPSSATADTSIFAGQNDPLKDSYGMSPCNTAVVPQGWSVEALNSPHSESFVSPEAVAEPPQPTAVPLELAKEIEMASEERPPAQALEIMMGLKTTDMAPSKETEMALAKDMALATKTEVALAKDMESPTKLDVTLAKDMQPSMESDMALVKDMELPTEKEVALVKDVRWPTETDVSSAKNVVLPTETEVAPAKDVTLLKETERASPIKMDLAPSKDMGPPKENKKETERASPIKMDLAPSKDMGPPKENKIVPAKDLVLLSEIEVAQANDIISSTEISSAEKVALSSETEVALARDMTLPPETNVILTKDKALPLEAEVAPVKDMAQLPETEIAPAKDVAPSTVKEVGLLKDMSPLSETEMALGKDVTPPPETEVVLIKNVCLPPEMEVALTEDQVPALKTEAPLAKDGVLTLANNVTPAKDVPPLSETEATPVPIKDMEIAQTQKGISEDSHLESLQDVGQSAAPTFMISPETVTGTGKKCSLPAEEDSVLEKLGERKPCNSQPSELSSETSGIARPEEGRPVVSGTGNDITTPPNKELPPSPEKKTKPLATTQPAKTSTSKAKTQPTSLPKQPAPTTIGGLNKKPMSLASGLVPAAPPKRPAVASARPSILPSKDVKPKPIADAKAPEKRASPSKPASAPASRSGSKSTQTVAKTTTAAAVASTGPSSRSPSTLLPKKPTAIKTEGKPAEVKKMTAKSVPADLSRPKSTSTSSMKKTTTLSGTAPAAGVVPSRVKATPMPSRPSTTPFIDKKPTSAKPSSTTPRLSRLATNTSAPDLKNVRSKVGSTENIKHQPGGGRAKVEKKTEAAATTRKPESNAVTKTAGPIASAQKQPAGKVQIVSKKVSYSHIQSKCGSKDNIKHVPGGGNVQIQNKKVDISKVSSKCGSKANIKHKPGGGDVKIESQKLNFKEKAQAKVGSLDNVGHLPAGGAVKTEGGGSEAPLCPGPPAGEEPAISEAAPEAGAPTSASGLNGHPTLSGGGDQREAQTLDSQIQETSI
# B2: SRSF7 (protein, UniProt Q16629 1-238, looked up)
# Serine/arginine-rich splicing …: MSRYGRYGGETKVYVGNLGTGAGKGELERAFSYYGPLRTVWIARNPPGFAFVEFEDPRDAEDAVRGLDGKVICGSRVRVELSTGMPRRSRFDRPPARRPFDPNDRCYECGEKGHYAYDCHRYSRRRRSRSRSRSHSRSRGRRYSRSRSRSRGRRSRSASPRRSRSISLRRSRSASLRRSRSGSIKGSRYFQSPSRSRSRSRSISRPRSSRSKSRSPSPKRSRSPSGSPRRSASPERMD
# B3: DDX17 (protein, UniProt Q92841 1-729, looked up)
# Probable ATP-dependent RNA …: MPTGFVAPILCVLLPSPTREAATVASATGDSASERESAAPAAAPTAEAPPPSVVTRPEPQALPSPAIRAPLPDLYPFGTMRGGGFGDRDRDRDRGGFGARGGGGLPPKKFGNPGERLRKKKWDLSELPKFEKNFYVEHPEVARLTPYEVDELRRKKEITVRGGDVCPKPVFAFHHANFPQYVMDVLMDQHFTEPTPIQCQGFPLALSGRDMVGIAQTGSGKTLAYLLPAIVHINHQPYLERGDGPICLVLAPTRELAQQVQQVADDYGKCSRLKSTCIYGGAPKGPQIRDLERGVEICIATPGRLIDFLESGKTNLRRCTYLVLDEADRMLDMGFEPQIRKIVDQIRPDRQTLMWSATWPKEVRQLAEDFLRDYTQINVGNLELSANHNILQIVDVCMESEKDHKLIQLMEEIMAEKENKTIIFVETKRRCDDLTRRMRRDGWPAMCIHGDKSQPERDWVLNEFRSGKAPILIATDVASRGLDVEDVKFVINYDYPNSSEDYVHRIGRTARSTNKGTAYTFFTPGNLKQARELIKVLEEANQAINPKLMQLVDHRGGGGGGGGRSRYRTTSSANNPNLMYQDECDRRLRGVKDGGRRDSASYRDRSETDRAGYANGSGYGSPNSAFGAQAGQYTYGQGTYGAAAYGTSSYTAQEYGAGTYGASSTTSTGRSSQSSSQQFSGIGRSGQQPQPLMSQQFAQPPGATNMIGYMGQTAYQYPPPPPPPPPSRK
# B4: PABPC4: host protein, UniProt Q13310 (protein, UniProt Q13310 1-644, looked up)
# Polyadenylate-binding protein …: MNAAASSYPMASLYVGDLHSDVTEAMLYEKFSPAGPVLSIRVCRDMITRRSLGYAYVNFQQPADAERALDTMNFDVIKGKPIRIMWSQRDPSLRKSGVGNVFIKNLDKSIDNKALYDTFSAFGNILSCKVVCDENGSKGYAFVHFETQEAADKAIEKMNGMLLNDRKVFVGRFKSRKEREAELGAKAKEFTNVYIKNFGEEVDDESLKELFSQFGKTLSVKVMRDPNGKSKGFGFVSYEKHEDANKAVEEMNGKEISGKIIFVGRAQKKVERQAELKRKFEQLKQERISRYQGVNLYIKNLDDTIDDEKLRKEFSPFGSITSAKVMLEDGRSKGFGFVCFSSPEEATKAVTEMNGRIVGSKPLYVALAQRKEERKAHLTNQYMQRVAGMRALPANAILNQFQPAAGGYFVPAVPQAQGRPPYYTPNQLAQMRPNPRWQQGGRPQGFQGMPSAIRQSGPRPTLRHLAPTGSECPDRLAMDFGGAGAAQQGLTDSCQSGGVPTAVQNLAPRAAVAAAAPRAVAPYKYASSVRSPHPAIQPLQAPQPAVHVQGQEPLTASMLAAAPPQEQKQMLGERLFPLIQTMHSNLAGKITGMLLEIDNSELLHMLESPESLRSKVDEAVAVLQAHHAKKEAAQKVGAVAAATS
# B5: MBNL1 (protein, UniProt Q9NR56 1-388, looked up)
# Muscleblind-like protein 1: MAVSVTPIRDTKWLTLEVCREFQRGTCSRPDTECKFAHPSKSCQVENGRVIACFDSLKGRCSRENCKYLHPPPHLKTQLEINGRNNLIQQKNMAMLAQQMQLANAMMPGAPLQPVPMFSVAPSLATNASAAAFNPYLGPVSPSLVPAEILPTAPMLVTGNPGVPVPAAAAAAAQKLMRTDRLEVCREYQRGNCNRGENDCRFAHPADSTMIDTNDNTVTVCMDYIKGRCSREKCKYFHPPAHLQAKIKAAQYQVNQAAAAQAAATAAAMTQSAVKSLKRPLEATFDLGIPQAVLPPLPKRPALEKTNGATAVFNTGIFQYQQALANMQLQQHTAFLPPVPMVHGATPATVSAATTSATSVPFAATATANQIPIISAEHLTSHKYVTQM
# B6: LRRC47: host protein, UniProt Q8N1G4 (protein, UniProt Q8N1G4 2-583, looked up)
# Leucine-rich …: AAAAVSESWPELELAERERRRELLLTGPGLEERVRAAGGQLPPRLFTLPLLHYLEVSGCGSLRAPGPGLAQGLPQLHSLVLRRNALGPGLSPELGPLPALRVLDLSGNALEALPPGQGLGPAEPPGLPQLQSLNLSGNRLRELPADLARCAPRLQSLNLTGNCLDSFPAELFRPGALPLLSELAAADNCLRELSPDIAHLASLKTLDLSNNQLSEIPAELADCPKLKEINFRGNKLRDKRLEKMVSGCQTRSILEYLRVGGRGGGKGKGRAEGSEKEESRRKRRERKQRREGGDGEEQDVGDAGRLLLRVLHVSENPVPLTVRVSPEVRDVRPYIVGAVVRGMDLQPGNALKRFLTSQTKLHEDLCEKRTAATLATHELRAVKGPLLYCARPPQDLKIVPLGRKEAKAKELVRQLQLEAEEQRKQKKRQSVSGLHRYLHLLDGNENYPCLVDADGDVISFPPITNSEKTKVKKTTSDLFLEVTSATSLQICKDVMDALILKMAEMKKYTLENKEEGSLSDTEADAVSGQLPDPTTNPSAGKDGPSLLVVEQVRVVDLEGSLKVVYPSKADLATAPPHVTVVR
# Legend:
# Format in all cases: binding
# SARS-CoV-2 gRNA = conditions: for target (unweighted spectral count of the protein in the RNP capture): LC-MS/MS, Probe I sample (first 199 lines of Table 2)
# [1] = system: SARS-CoV-2 gRNA and sgRNAs; conditions: for background (unweighted spectral count in control): no-probe control pull-down, used as background for Probe II; for target (unweighted spectral count in RNP capture): Probe II capture, LC-MS/MS LFQ
# HCoV-OC43 gRNA and sgRNA = conditions: for target (spectral count) / background (spectral count): type s_36_m, Probe II; for target (spectral count): HCoV-OC43-infected HCT-8 cells; for background (spectral count): uninfected-probe control
# gRNA of HCoV-OC43 = system: gRNA of HCoV-OC43
# [2] = 24 hpi, type n_24_v, tested against no-probe control, FDR<10%
# [3] = OC43 Probe II, 12 hpi (type n_12_v), infected cells, tested against no-probe control
# [4] = 36 hpi, type n_36_v, tested against no-probe control, FDR<10%
# [5] = OC43 Probe II, 24 hpi (type n_24_v), infected cells, tested against no-probe control
Molecule,target (unweighted spectral count of the protein in the RNP capture) (SARS-CoV-2 gRNA),background (unweighted spectral count in control) [1],"target (unweighted spectral count, OC43 Probe II capture) (HCoV-OC43 gRNA and sgRNA; [2])",target (unweighted spectral count) (HCoV-OC43 gRNA and sgRNA; [3]),target (unweighted spectral count in RNP capture) [1],"target (unweighted spectral count, OC43 Probe II capture) (HCoV-OC43 gRNA and sgRNA; [4])",target (unweighted spectral count) (HCoV-OC43 gRNA and sgRNA; [5]),target (spectral count) (HCoV-OC43 gRNA and sgRNA; 36 hpi),background (spectral count) (HCoV-OC43 gRNA and sgRNA; 36 hpi),other results
B1,14,1,8,5,,,,,,"target (unweighted spectral count, OC43 Probe II) (HCoV-OC43 gRNA and sgRNA; type n_36_v, 36 hpi, OC43 Probe II capture on infected cells): 11; background (unweighted spectral count, no-probe control) (HCoV-OC43 gRNA and sgRNA; type n_36_v, 36 hpi, no-probe control on infected cells): 4"
B2,21,1,,,16,,,,,"background (unweighted spectral count, no-probe control) (HCoV-OC43 gRNA and sgRNA): 4; target (unweighted spectral count) (HCoV-OC43 gRNA and sgRNA): 5; target (unweighted spectral count, OC43 Probe II capture) (HCoV-OC43 gRNA and sgRNA): 14; target (unweighted spectral count, OC43 Probe II) (HCoV-OC43 gRNA and sgRNA): 19"
B3,24,1,,,15,17,9,,,
B4,,,,,,11,6,11,1,"enrichment in SARS-CoV-2 Probe I RNP capture (SARS-CoV-2 gRNA): found in the SARS-CoV-2 experiments; enrichment in SARS-CoV-2 Probe II RNP capture [1]: found in the SARS-CoV-2 experiments; target (spectral count) (gRNA of HCoV-OC43; type g_36_m, HCoV-OC43-infected HCT-8 cells, 36 hpi, Probe I): 12; background (spectral count) (gRNA of HCoV-OC43; type g_36_m, uninfected-probe control, 36 hpi, Probe I): 2; target (spectral count, OC43 Probe I RNP capture) (gRNA of HCoV-OC43; type n_48_v: 48 hours post-infection, infected cells, OC43 Probe I, unweighted spectral count): 11; background (spectral count, no-probe control) (gRNA of HCoV-OC43; type n_48_v: 48 hours post-infection, no-probe control on infected cells): 1; target (unweighted spectral count, OC43 Probe II) (HCoV-OC43 gRNA and sgRNA; type n_48_v, 48 hpi, OC43 Probe II capture on infected cells): 11; background (unweighted spectral count, no-probe control) (HCoV-OC43 gRNA and sgRNA; type n_48_v, 48 hpi, no-probe control on infected cells): 1"
B5,19,1,,5,32,,,,,
B6,14,1,4,,13,,,7,1,
